T1: Abp1, P15891
T1 sequence (P15891 535-592, looked up): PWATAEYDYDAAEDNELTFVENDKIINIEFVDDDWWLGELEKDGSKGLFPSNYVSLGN

T2: Bbc1, P47068
T2 sequence (P47068 1-78, looked up): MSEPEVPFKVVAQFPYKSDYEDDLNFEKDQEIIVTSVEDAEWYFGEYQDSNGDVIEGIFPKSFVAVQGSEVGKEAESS

T3: Boi1, P38041
T3 sequence (P38041 1-86, looked up): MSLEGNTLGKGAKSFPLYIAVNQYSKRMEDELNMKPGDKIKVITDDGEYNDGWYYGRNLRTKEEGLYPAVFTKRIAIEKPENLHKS

T4: Boi2, P39969
T4 sequence (P39969 32-116, looked up): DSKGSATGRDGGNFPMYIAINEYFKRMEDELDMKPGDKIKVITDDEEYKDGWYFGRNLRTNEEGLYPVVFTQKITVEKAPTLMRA

T5: Bud14, P27637
T5 sequence (P27637 247-328, looked up): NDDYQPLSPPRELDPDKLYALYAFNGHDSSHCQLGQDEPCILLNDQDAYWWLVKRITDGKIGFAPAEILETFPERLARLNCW

T6: Bzz1-1, P38822
T6 sequence (P38822 478-572, looked up): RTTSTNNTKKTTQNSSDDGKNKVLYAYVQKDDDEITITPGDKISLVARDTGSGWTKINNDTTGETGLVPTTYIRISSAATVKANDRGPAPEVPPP

T7: Bzz1-2, P38822
T7 sequence (P38822 568-633, looked up): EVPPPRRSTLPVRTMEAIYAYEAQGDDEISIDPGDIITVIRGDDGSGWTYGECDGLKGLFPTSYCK

T8: Cdc25, P04821
T8 sequence (P04821 50-136, looked up): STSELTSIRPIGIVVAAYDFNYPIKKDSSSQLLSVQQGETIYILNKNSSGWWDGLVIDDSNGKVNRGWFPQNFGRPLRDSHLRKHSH

T9: Cyk3, Q07533
T9 sequence (Q07533 1-83, looked up): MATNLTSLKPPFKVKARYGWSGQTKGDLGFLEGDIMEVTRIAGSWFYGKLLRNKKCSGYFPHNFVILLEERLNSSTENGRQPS

T10: Fus1, P11710
T10 sequence (P11710 432-512, looked up): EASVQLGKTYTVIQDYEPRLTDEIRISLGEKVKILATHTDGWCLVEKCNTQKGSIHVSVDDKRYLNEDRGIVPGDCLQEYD

T11: Hof1, Q05080
T11 sequence (Q05080 590-669, looked up): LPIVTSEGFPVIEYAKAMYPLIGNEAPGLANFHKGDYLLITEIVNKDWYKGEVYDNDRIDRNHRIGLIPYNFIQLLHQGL

T12: Hse1, P38753
T12 sequence (P38753 208-285, looked up): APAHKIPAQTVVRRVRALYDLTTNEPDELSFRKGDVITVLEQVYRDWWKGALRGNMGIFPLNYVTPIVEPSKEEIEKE

T13: Lsb1, P53281
T13 sequence (P53281 45-122, looked up): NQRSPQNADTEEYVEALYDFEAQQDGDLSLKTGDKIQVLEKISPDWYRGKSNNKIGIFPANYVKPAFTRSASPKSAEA

T14: Lsb3, P43603
T14 sequence (P43603 385-451, looked up): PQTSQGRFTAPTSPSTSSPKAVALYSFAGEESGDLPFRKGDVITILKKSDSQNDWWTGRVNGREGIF

T15: Lsb4, P32793
T15 sequence (P32793 402-468, looked up): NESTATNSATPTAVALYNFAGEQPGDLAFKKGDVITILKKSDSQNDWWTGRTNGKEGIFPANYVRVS

T16: Myo5, Q04439
T16 sequence (Q04439 1072-1160, looked up): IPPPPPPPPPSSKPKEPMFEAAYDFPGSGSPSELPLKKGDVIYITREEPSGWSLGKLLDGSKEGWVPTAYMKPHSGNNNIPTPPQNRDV

T17: Nbp2, Q12163
T17 sequence (Q12163 103-180, looked up): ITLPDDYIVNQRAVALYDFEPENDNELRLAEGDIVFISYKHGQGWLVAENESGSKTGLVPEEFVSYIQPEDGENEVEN

T18: Pex13, P80667
T18 sequence (P80667 295-386, looked up): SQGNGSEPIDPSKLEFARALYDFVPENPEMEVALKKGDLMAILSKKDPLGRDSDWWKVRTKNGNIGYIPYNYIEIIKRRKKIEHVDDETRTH

T19: Pin3, Q06449
T19 sequence (Q06449 53-122, looked up): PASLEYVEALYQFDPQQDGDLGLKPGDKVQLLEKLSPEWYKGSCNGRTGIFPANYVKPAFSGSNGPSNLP

T20: Sla1-2, P32790
T20 sequence (P32790 60-140, looked up): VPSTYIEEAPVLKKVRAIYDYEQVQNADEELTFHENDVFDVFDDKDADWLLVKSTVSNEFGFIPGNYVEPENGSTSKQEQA

T21: Sla1-3, P32790
T21 sequence (P32790 344-424, looked up): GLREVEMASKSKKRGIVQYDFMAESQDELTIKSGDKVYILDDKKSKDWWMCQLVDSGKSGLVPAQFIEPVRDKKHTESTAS


biological target: T1, Abp1, P15891; experiment: SPOT array; conditions: median of control spots 935

Binder	SPOT intensity
AERNYAPRLPRRETS	50
EVTPKVPERPSRRKT	156
TPTSGPPLLPPRNTM	25

biological target: T2, Bbc1, P47068; experiment: SPOT array; conditions: median of control spots 796

Binder	SPOT intensity
AERNYAPRLPRRETS	18
EVTPKVPERPSRRKT	1070
TPTSGPPLLPPRNTM	0

biological target: Bem1-1, P29366; experiment: SPOT array; conditions: median of control spots 4282
Sequence (P29366 55-141): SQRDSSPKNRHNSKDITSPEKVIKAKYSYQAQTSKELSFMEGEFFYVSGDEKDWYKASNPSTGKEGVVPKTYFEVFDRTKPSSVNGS

Binder	SPOT intensity
AERNYAPRLPRRETS	1
EVTPKVPERPSRRKT	0
TPTSGPPLLPPRNTM	0

biological target: Bem1-2, P29366; experiment: SPOT array; conditions: median of control spots 4347
Sequence (P29366 139-227): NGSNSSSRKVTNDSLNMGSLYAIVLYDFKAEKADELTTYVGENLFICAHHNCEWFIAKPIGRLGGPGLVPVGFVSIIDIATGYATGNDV

Binder	SPOT intensity
AERNYAPRLPRRETS	0
EVTPKVPERPSRRKT	13
TPTSGPPLLPPRNTM	0

biological target: T3, Boi1, P38041; experiment: SPOT array; conditions: median of control spots 1162

Binder	SPOT intensity
AERNYAPRLPRRETS	0
EVTPKVPERPSRRKT	0
TPTSGPPLLPPRNTM	2

biological target: T4, Boi2, P39969; experiment: SPOT array; conditions: median of control spots 1161

Binder	SPOT intensity
AERNYAPRLPRRETS	0
EVTPKVPERPSRRKT	2
TPTSGPPLLPPRNTM	0

biological target: T5, Bud14, P27637; experiment: SPOT array; conditions: median of control spots 956

Binder	SPOT intensity
AERNYAPRLPRRETS	12
EVTPKVPERPSRRKT	3
TPTSGPPLLPPRNTM	0

biological target: T6, Bzz1-1, P38822; experiment: SPOT array; conditions: median of control spots 4446

Binder	SPOT intensity
AERNYAPRLPRRETS	0
EVTPKVPERPSRRKT	1
TPTSGPPLLPPRNTM	0

biological target: T7, Bzz1-2, P38822; experiment: SPOT array; conditions: median of control spots 4538

Binder	SPOT intensity
AERNYAPRLPRRETS	1
EVTPKVPERPSRRKT	1
TPTSGPPLLPPRNTM	0

biological target: T8, Cdc25, P04821; experiment: SPOT array; conditions: median of control spots 969

Binder	SPOT intensity
AERNYAPRLPRRETS	11
EVTPKVPERPSRRKT	10
TPTSGPPLLPPRNTM	0

biological target: T9, Cyk3, Q07533; experiment: SPOT array; conditions: median of control spots 1451

Binder	SPOT intensity
AERNYAPRLPRRETS	0
EVTPKVPERPSRRKT	1
TPTSGPPLLPPRNTM	1

biological target: T10, Fus1, P11710; experiment: SPOT array; conditions: median of control spots 1200

Binder	SPOT intensity
AERNYAPRLPRRETS	0
EVTPKVPERPSRRKT	0
TPTSGPPLLPPRNTM	1

biological target: GST; experiment: SPOT array; conditions: median of control spots 978

Binder	SPOT intensity
AERNYAPRLPRRETS	0
EVTPKVPERPSRRKT	0
TPTSGPPLLPPRNTM	0

biological target: T11, Hof1, Q05080; experiment: SPOT array; conditions: median of control spots 4086

Binder	SPOT intensity
AERNYAPRLPRRETS	0
EVTPKVPERPSRRKT	28
TPTSGPPLLPPRNTM	3

biological target: T12, Hse1, P38753; experiment: SPOT array; conditions: median of control spots 1727

Binder	SPOT intensity
AERNYAPRLPRRETS	4
EVTPKVPERPSRRKT	245
TPTSGPPLLPPRNTM	4

biological target: T13, Lsb1, P53281; experiment: SPOT array; conditions: median of control spots 388

Binder	SPOT intensity
AERNYAPRLPRRETS	352
EVTPKVPERPSRRKT	824
TPTSGPPLLPPRNTM	456

biological target: T14, Lsb3, P43603; experiment: SPOT array; conditions: median of control spots 406

Binder	SPOT intensity
AERNYAPRLPRRETS	371
EVTPKVPERPSRRKT	271
TPTSGPPLLPPRNTM	345

biological target: T15, Lsb4, P32793; experiment: SPOT array; conditions: median of control spots 397

Binder	SPOT intensity
AERNYAPRLPRRETS	137
EVTPKVPERPSRRKT	317
TPTSGPPLLPPRNTM	356

biological target: Myo3, P36006; experiment: SPOT array; conditions: median of control spots 468

Binder	SPOT intensity
AERNYAPRLPRRETS	0
EVTPKVPERPSRRKT	0
TPTSGPPLLPPRNTM	97

biological target: T16, Myo5, Q04439; experiment: SPOT array; conditions: median of control spots 471

Binder	SPOT intensity
AERNYAPRLPRRETS	0
EVTPKVPERPSRRKT	0
TPTSGPPLLPPRNTM	45

biological target: T17, Nbp2, Q12163; experiment: SPOT array; conditions: median of control spots 357

Binder	SPOT intensity
AERNYAPRLPRRETS	0
EVTPKVPERPSRRKT	0
TPTSGPPLLPPRNTM	0

biological target: T18, Pex13, P80667; experiment: SPOT array; conditions: median of control spots 1341

Binder	SPOT intensity
AERNYAPRLPRRETS	76
EVTPKVPERPSRRKT	171
TPTSGPPLLPPRNTM	813

biological target: T19, Pin3, Q06449; experiment: SPOT array; conditions: median of control spots 2171

Binder	SPOT intensity
AERNYAPRLPRRETS	18
EVTPKVPERPSRRKT	25
TPTSGPPLLPPRNTM	66

biological target: Rvs167, P39743; experiment: SPOT array; conditions: median of control spots 2707
Sequence (P39743 419-482): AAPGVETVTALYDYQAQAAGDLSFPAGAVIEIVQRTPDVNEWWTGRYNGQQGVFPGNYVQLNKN

Binder	SPOT intensity
AERNYAPRLPRRETS	306
EVTPKVPERPSRRKT	129
TPTSGPPLLPPRNTM	2940

biological target: Sho1, P40073; experiment: SPOT array; conditions: median of control spots 1148
Sequence (P40073 287-367): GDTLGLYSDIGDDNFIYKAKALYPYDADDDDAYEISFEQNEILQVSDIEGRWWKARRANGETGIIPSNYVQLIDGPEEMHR

Binder	SPOT intensity
AERNYAPRLPRRETS	32
EVTPKVPERPSRRKT	23
TPTSGPPLLPPRNTM	21

biological target: T20, Sla1-2, P32790; experiment: SPOT array; conditions: median of control spots 712

Binder	SPOT intensity
AERNYAPRLPRRETS	0
EVTPKVPERPSRRKT	0
TPTSGPPLLPPRNTM	1

biological target: T21, Sla1-3, P32790; experiment: SPOT array; conditions: median of control spots 5475

Binder	SPOT intensity
AERNYAPRLPRRETS	5
EVTPKVPERPSRRKT	15
TPTSGPPLLPPRNTM	0
